Measurements: US7514534 (DYAX, dated 2009)
Numbering of substitutions follows the chain as printed.

T1: MMP-26 catalytic domain, tagged with hexa-histidine (human, UniProt Q9NRE1 90-261)
T1 construct: the forward primer adds Met-Ala before it; also called MMP-26 target protein; Matrilysin-2; not shown: Also any N-terminal residues added by the forward primer (Met-Ala according to our card; the primers were not visible to me)
T1 sequence: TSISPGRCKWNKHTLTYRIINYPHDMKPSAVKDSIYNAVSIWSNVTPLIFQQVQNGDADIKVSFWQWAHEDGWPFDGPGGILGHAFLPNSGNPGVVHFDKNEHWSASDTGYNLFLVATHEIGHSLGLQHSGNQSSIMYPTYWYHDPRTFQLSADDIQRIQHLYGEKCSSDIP

B1: C01 (antibody, human IgG4, V domains shown)
VH: EVQLLESGGGLVQPGGSLRLSCAASGFTFSNYGMSWVRQAPGKGLEWVSVIGPSGGITMYADSVKGRFTISRDNSKNTLYLQMNSLRAEDTAVYYCATGSSSGWYPNFDYWGQGTLVTVSS
VL: DIQMTQSPSTLSASVGDRVTITCRASQSIGNWLAWYQQKPGEAPHLLIYQASSLEGGVPSRFSGSGSGTKFTLNISSLQPDDFATYYCQQYNSYSYTFGQGTKLDIKR
notes: whole human IgG4
B2: B06 (antibody, human IgG4, V domains shown)
VH: EVQLLESGGGLVQPGGSLRLSCAASGFTFSQYFMKWVRQAPGKGLEWVSSISPSGGLTQYADSVKGRFTISRDNSKNTLYLQMNSLRAEDTAVYYCARGGIEAPGSPSDYWGQGTLVTVSS
VL: DIQMTQSPSFLSASVGDRVTITCRASQGISSYLAWYQQKPGKAPKLLIYAASTLQSGVPSRFSGSGSGTDFTLTISSLEPEDFATYYCQESYSTPFFTFGPGTKVDIRR
notes: whole human IgG4
B3: B01 (antibody, human IgG4, V domains shown)
VH: EVQLLESGGGLVQPGGSLRLSCAASGFTFSTYDMLWVRQAPGKGLEWVSSISPSGGSTSYADSVKGRFTISRDNSKNTLYLQLNSLRAEDTAVYYCAREKASDLSGTYSEALDHWGQGTLVTVSS
VL: DIQMTQSPGTLSLSPGERATLSCRASQSVSSSYFAWYQQKPGQAPRLLIYDASSRATGIPDRFSGSGSGTDFTLTISRLEPEDFAVYYCQQYGSSPPMYTFGQGTKLEIKR
notes: whole human IgG4
B4: C04 (antibody, human IgG4, V domains shown)
VH: EVQLLESGGGLVQPGGSLRLSCAASGFTFSMYFMVWVRQAPGKGLEWVSWIGSSGGETPYADSVKGRFTISRDNSKNTLYLQMNSLRAEDTAVYYCARGYSSGWYVMGDYWGQGTLVTVSS
VL: QSALTQPPSASGTPGQRVTISCSGTSSNIGSHYVFWYQQLPGTAPKLLIHRNDERPSGVPDRFSGSKSGTSASLAISGLQSEDEADYYCATWDDNLNGPVFGGGTKLT
notes: whole human IgG4
B5: B08 (antibody, human IgG4, V domains shown)
VH: EVQLLESGGGLVQPGGSLRLSCAASGFTFSRYMMNWVRQAPGKGLEWVSVIWSSGGKTLYADSVKGRFTISRDNSKNTLYLQMKSLRAEDTAVYYCARGGYNNYYYSMDVWGQGTTVTVSS
VL: QSELTQPHSVSGSPGKTVTISCTRSSGSIAGNYVQWYQQRPGSSPTTVIYEDNKRPSGVPDRFSGSIDSSSNSASLIISGLKTEDEADYYCHSYDTSNQVFGGGTKLTVLG
notes: whole human IgG4
B6: C05 (antibody, human IgG4, V domains shown)
VH: EVQLLESGGGLVQPGGSLRLSCAASGFTFSSYQMDWVRQAPGKGLEWVSRIVPSGGDTTYADSVKGRFTISRDNSKNTLYLQMNSLRAEDTAVYYCARHVYYDSSDYFPNPFDYWGQGTLVTVSS
VL: QSELTQPPSVSGTPGQRVTISCSGSSSNIGSEYVYWFQQLPGTAPRLLIYRNDQRPSGVPDRFSGSKSGTSASLAISGLRSEDETDYYCTTWDDSLSGPVFGGGTKLTVLG
notes: whole human IgG4
B7: A12 (antibody, human IgG4, V domains shown)
VH: EVQLLESGGGLVQPGGSLRLSCAASGFTFSAYWMDWVRQAPGKGLEWVSVIYPSGGSTNYADSVKGRFTISRDNSKNTLYLQMNSLRAEDTAVYYCAREGIAAAAPMDVWGKGTTVTVSS
VL: DIQMTQSPGTLSLSPGERATLSCRASQSVSRSYLGWYQQKPGQAPRLLIYGASNRATGIPDRFSGSGSGTDFTLTISRLEPEDFAVYYCQQYGISPLTFGPGTKVDIKR
notes: whole human IgG4
B8: B12 (antibody, human IgG4, V domains shown)
VH: EVQLLESGGGLVQPGGSLRLSCAASGFTFSLYVMYWVRQAPGKGLEWVSYISSSGGITHYADSVKGRFTISRDNSKNTLYLQMNSLRAEDTAVYYCARGSIVVVPAAIRSNNWFDPWGQGTLVTVSS
VL: QSALTQPPSVSVAPGQTARISCGGDNIDTKNVQWYQQRPGQAPVLVVYDNSDRPSAIPERFSGSNSGTTATLTISRVEAGDEADYYCQVFDGRSDHPVFGGGTKLTV
notes: whole human IgG4
B9: A01 (antibody, human IgG4, V domains shown)
VH: EVQLLESGGGLVQPGGSLRLSCAASGFTFSAYNMFWVRQAPGKGLEWVSGIGSSGGIAPYADSVKGRFTISRDNSKNTLYLQMNSLRAEDTAVYYCARAAYEVENWFDPWGQGTLVTVSS
VL: DIQMTQSPGTLSLSPGERATLSCRASQIVRSTYLAWYQQKPGQAPRLLIYGTSSRATGVPDRFSGSGSGTDFTLTISGLEPEDFALYYCQRYGDSPPITFGQGTRLEITR
notes: whole human IgG4
B10: C03 (antibody, human IgG4, V domains shown)
VH: EVQLLESGGGLVQPGGSLRLSCAASGFTFSLYMMKWVRQAPGKGLEWVSVISSSGGYTQYADSVKGRFTISRDNSKNTLYLQMNNLRAEDTAVYYCARGWDVWGKGTTVTVSS
VL: QSALTQPPSASGTPGQRVTISCSGSNSNIGGNIVIWLQQLPGTAPKLMIYDVSDRPSGVPDRFSGSKSGTSASLAISGLQSEDEADYYCAAWDDSLNGWVFGGGTKLTVLS
notes: whole human IgG4
B11: A11 (antibody, human IgG4, V domains shown)
VH: EVQLLESGGGLVQPGGSLRLSCAASGFTFSWYTMMWVRQAPGKGLEWVSRISPSGGHTLYADSVKGRFTISRDNSZNTLYLQMNSLRAEDTAVYYCARDTWDDYYDSSGYYNDFDYWGQGTLVTVSS
VL: QSALTQPPSVSLAPGQTARITCGGNNIGTKSVHWYQQKPGQAPVLVVYDDSDRPSGIPERFSGSNSGNTATLTISRVEAGDEADYYCQVWDSGSDHQVFGGGTKLTVLG
notes: whole human IgG4; the VHC entry has one unread residue (printed z, K75z)
B12: B11 (antibody, human IgG4, V domains shown)
VH: EVQLLESGGGLVQPGGSLRLSCAASGFTFSPYFMFWVRQAPGKGLEWVSSIGSSGGDTSYADSVKGRFTISRDNSZNTLYLQMNSLRAEDTAVYYCARGLYRWGQGTLVTVSS
VL: B11 VL with A3E
notes: as for B11
B13: A10 (antibody, human IgG4, V domains shown)
VH: EVQLLESGGGLVQPGGSLRLSCAASGFTFSAYRMFWVRQAPGKGLEWVSSIWPSGGTTSYADSVKGRFTISRDNSKNTLYLQMNSLRAEDTAVYYCARDRGYDSSGYFDYWGQGTLVTVSS
VL: QSELTQPPSASGTPGQRVTISCSGGSSNIGSNYVSWYQQLPGTAPKLLIYNNNQRPSGVPDRFSGSKSGTSASLAISGLRSEDEADYYCAAWDDSLSSAVFGGGTQLTVLG
notes: whole human IgG4
B14: C12 (antibody, V domains shown)
VH: EVQLLESGGGLVQPGGSLRLSCAASGFTFSAYNMMWVRQAPGKGLEWVSRIYPSGGYTLYADSVKGRFTISRDNSKNTLYLQMNSLRAEDTAVYYCARQKLMIRAVRPFDYWGQGTLVTVSS
VL: QSELTQPPSVSVSPAQTASITCSGDKLGDKYACWYQQKPGQSPVLVIYEDTKRPSGIPERFSGSNSGNTATLTISGTQVMDEADYYCQVWDSSTAVFGGGTKLTVLG
notes: whole human IgG4
B15: B10 (antibody, human IgG4, V domains shown)
VH: EVQLLESGGGLVQPGGSLRLSCAASGFTFSSYAMMWVRQAPGKGLEWVSWIVPSGGTTFYADSVKGRFTISRDNSKNTLYLQMNSLRAEDTAVYYCARGLYRWGQGTLVTVSSASTKGPSVFP
VL: DIQMTQSPSSLSASVGDRVTIACRTSQNVNRYLNWYQHKLGQAPKLLIYGATILQSGVPSRFRGSGSGTDFILTITNLQPEDFAVYYCQQTYSPPLTFGQGTKAEFKGTVAAPSV
notes: whole human IgG4

The binders below were run against T2, MMP-3 (UniProt P08254 100-477, limits assumed) (assay: cross-reactivity ELISA on coated MMP).
T2 construct: also called stromelysin-1
T2 sequence (P08254 100-477 limits assumed): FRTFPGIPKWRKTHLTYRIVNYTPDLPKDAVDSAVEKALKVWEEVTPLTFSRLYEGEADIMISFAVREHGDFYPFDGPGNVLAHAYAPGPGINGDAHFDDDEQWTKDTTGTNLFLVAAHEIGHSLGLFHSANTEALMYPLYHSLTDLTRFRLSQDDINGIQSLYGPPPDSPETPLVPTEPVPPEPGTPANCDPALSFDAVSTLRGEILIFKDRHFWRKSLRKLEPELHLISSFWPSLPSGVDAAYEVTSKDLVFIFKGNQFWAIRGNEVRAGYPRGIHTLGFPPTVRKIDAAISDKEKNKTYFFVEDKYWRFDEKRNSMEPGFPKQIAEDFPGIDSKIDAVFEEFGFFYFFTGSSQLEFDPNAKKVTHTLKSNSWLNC
Method: (§1) Twenty-one of the reformatted MMP-26 antibodies were tested for MMP cross reactivity by ELISA analysis. MMP-3, MMP-7, MMP-9, and MMP-12 were coated onto Immulon 2 HB 96-well plates at a concentration of 1 μg/ml for 1 hour at 37° C. The plates were blocked with PBS-T containing 5% (w/v) nonfat dry milk for thirty minutes and subsequently washed with PBS-T. Each antibody was tested for reactivity to all of the above mentioned MMPs at a concentration of 2 μg/ml with an incubation time of 1 hour. Bound antibody was detected with an HRP-conjugated anti-human secondary antibody (Table 3, NT=not tested.).

| binding result | Binder |
| --- | --- |
| no binding (tested: 2 µg/ml) | B1 |
| no binding (tested: 2 µg/ml) | B2 |
| no binding (tested: 2 µg/ml) | B3 |
| no binding (tested: 2 µg/ml) | B4 |
| no binding (tested: 2 µg/ml) | B5 |
| no binding (tested: 2 µg/ml) | B6 |
| no binding (tested: 2 µg/ml) | B7 |
| no binding (tested: 2 µg/ml) | B8 |
| no binding (tested: 2 µg/ml) | B9 |
| no binding (tested: 2 µg/ml) | B10 |
| no binding (tested: 2 µg/ml) | B11 |
| no binding (tested: 2 µg/ml) | B12 |
| no binding (tested: 2 µg/ml) | B13 |

What follows are binders tested against T3, MMP-9 (UniProt P14780 107-707, limits assumed) (assay: cross-reactivity ELISA on coated MMP).
T3 construct: also called gelatinase
T3 sequence (P14780 107-707 limits assumed): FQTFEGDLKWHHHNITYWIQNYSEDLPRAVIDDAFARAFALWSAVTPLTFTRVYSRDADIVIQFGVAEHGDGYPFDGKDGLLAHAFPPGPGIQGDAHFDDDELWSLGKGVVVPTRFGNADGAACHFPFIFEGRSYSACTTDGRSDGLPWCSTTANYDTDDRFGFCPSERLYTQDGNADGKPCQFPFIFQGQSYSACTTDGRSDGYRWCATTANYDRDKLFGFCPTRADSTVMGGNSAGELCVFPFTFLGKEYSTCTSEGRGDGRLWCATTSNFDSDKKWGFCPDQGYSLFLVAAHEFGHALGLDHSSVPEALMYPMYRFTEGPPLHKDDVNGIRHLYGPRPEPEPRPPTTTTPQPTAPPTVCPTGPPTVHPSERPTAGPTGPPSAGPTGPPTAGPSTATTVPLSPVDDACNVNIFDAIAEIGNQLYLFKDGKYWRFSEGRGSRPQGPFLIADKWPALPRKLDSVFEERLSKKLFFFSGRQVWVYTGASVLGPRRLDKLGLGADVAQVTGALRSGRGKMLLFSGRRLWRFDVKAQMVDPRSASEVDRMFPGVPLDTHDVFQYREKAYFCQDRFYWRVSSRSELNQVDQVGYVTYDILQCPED
Method: as §1

| binding result | Binder |
| --- | --- |
| no binding (tested: 2 µg/ml) | B1 |
| no binding (tested: 2 µg/ml) | B2 |
| no binding (tested: 2 µg/ml) | B3 |
| no binding (tested: 2 µg/ml) | B14 |
| no binding (tested: 2 µg/ml) | B4 |
| no binding (tested: 2 µg/ml) | B5 |
| no binding (tested: 2 µg/ml) | B6 |
| no binding (tested: 2 µg/ml) | B7 |
| no binding (tested: 2 µg/ml) | B8 |
| no binding (tested: 2 µg/ml) | B9 |
| no binding (tested: 2 µg/ml) | B10 |
| no binding (tested: 2 µg/ml) | B11 |
| no binding (tested: 2 µg/ml) | B12 |
| no binding (tested: 2 µg/ml) | B13 |
| no binding (tested: 2 µg/ml) | B15 |

These binders were tested against T1, MMP-26 catalytic domain, tagged with … (assay: bead-based ELISA, MMP-26 on nickel beads, IgG4 culture supernatant).
Method: Reformatted and expressed full-length MMP-26 binding IgG4 antibodies were tested for specificity in a bead-based ELISA. Approximately 1.25 μg of MMP-26 protein was bound to nickel-coated magnetic beads (Novagen) which had been pre-blocked with phosphate buffered saline containing 5% (w/v) nonfat dry milk and 0.05% (v/v) Tween-20. The beads were washed in phosphate buffered saline containing 0.05% (v/v) Tween-20 (PBS-T) and 100 uls of unpurified cell culture supernatant containing transiently produced MMP-26-binding antibodies was added and incubated on a rotator for sixty minutes. The beads were washed with PBS-T and MMP-26-binding antibodies were detected with an HRP-conjugated anti-human secondary antibody. Data is expressed in fold over background where background consists of beads, blocking agent, and culture supernatant containing target antibody (Table 2; in this table, Results shown as fold over background (F>B) where background consists of beads, blocking agent, and culture supernatant).

| F > B (fold over background) | Binder |
| --- | --- |
| 2.8 | B1 |
| 2.1 | B2 |
| 2.3 | B3 |
| 1.8 | B14 |
| 2.9 | B4 |
| 3 | B5 |
| 3.6 | B6 |
| 1.8 | B7 |
| 2.83 | B8 |
| 3.3 | B9 |
| 4.1 | B10 |
| 1.7 | B11 |
| 3.13 | B12 |
| 1.84 | B13 |
| 2.7 | B15 |
